Reference: the supplement of paper PMC10724198
± gives the standard deviation of the averaged measurements.

Columns and labels:
Saccharomyces cerevisiae [1] = experiment: protein stability index of tFT-peptide fusion (C-terminal peptide) (PSI (0-1 scale)); higher = more stable (slower turnover)
Description: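 MPS profiling in S. cerevisiae of the tFT-X12 degron library: putative degron peptides plus stable controls, 12 aa, fused to the C-terminus of a sfGFP-mCherry timer. Cells are FACS-sorted into 8 mCherry/sfGFP bins and deep-sequenced. PSI runs from 0 (unstable) to 1 (stable). Backgrounds are wild type, das1Δ and doa10Δ at 30 °C, and wild type, das1Δ, cdc34-1 and cdc53-1 at 37 °C; 2-3 technical replicates each.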

Saccharomyces cerevisiae [2] = experiment: as above; conditions: genetic background: wild type; temperature: 30 C
[3] = genetic background: cdc34-1, temperature: 37 C
[4] = genetic background: cdc53-1, temperature: 37 C
[5] = genetic background: das1 deletion, temperature: 30 C
[6] = genetic background: das1 deletion, temperature: 37 C
[7] = genetic background: doa10 deletion, temperature: 30 C
[8] = genetic background: wild type, temperature: 30 C
[9] = genetic background: wild type, temperature: 37 C
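Also: PSI is a weighted mean of sequencing reads over stability bins, variants kept only with over 10 reads, mCherry proximal and sfGFP distal, peptide attached via GGGS linker.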

| Sequence | protein stability index (Saccharomyces cerevisiae [2]) | other results |
| --- | --- | --- |
| LSLCFGPFFYFP | – | protein stability index (Saccharomyces cerevisiae [1]; [3]): 0.679 ± 0.072; protein stability index (Saccharomyces cerevisiae [1]; [4]): 0.7329 ± 0.0056; protein stability index (Saccharomyces cerevisiae [1]; [5]): 0.64 ± 0.029; protein stability index (Saccharomyces cerevisiae [1]; [6]): 0.711 ± 0.03; protein stability index (Saccharomyces cerevisiae [1]; [7]): 0.64 ± 0.042; protein stability index (Saccharomyces cerevisiae [1]; [8]): 0.6242 ± 0.0027; protein stability index (Saccharomyces cerevisiae [1]; [9]): 0.704 ± 0.046 |
| PPPPPSARSPFR | – | protein stability index (Saccharomyces cerevisiae [1]; [3]): 0.649 ± 0.043; protein stability index (Saccharomyces cerevisiae [1]; [4]): 0.726 ± 0.012; protein stability index (Saccharomyces cerevisiae [1]; [5]): 0.633 ± 0.027; protein stability index (Saccharomyces cerevisiae [1]; [6]): 0.7402 ± 0.0063; protein stability index (Saccharomyces cerevisiae [1]; [7]): 0.603 ± 0.03; protein stability index (Saccharomyces cerevisiae [1]; [8]): 0.602 ± 0.0097; protein stability index (Saccharomyces cerevisiae [1]; [9]): 0.695 ± 0.004 |
| RVIESRWFNRLC | – | protein stability index (Saccharomyces cerevisiae [1]; [3]): 0.587 ± 0.033; protein stability index (Saccharomyces cerevisiae [1]; [4]): 0.72 ± 0.015; protein stability index (Saccharomyces cerevisiae [1]; [5]): 0.656 ± 0.025; protein stability index (Saccharomyces cerevisiae [1]; [6]): 0.7405 ± 0.0048; protein stability index (Saccharomyces cerevisiae [1]; [7]): 0.0884 ± 0.011; protein stability index (Saccharomyces cerevisiae [1]; [8]): 0.121 ± 0.019; protein stability index (Saccharomyces cerevisiae [1]; [9]): 0.229 ± 0.018 |
| TFCVLLQFCVLV | – | protein stability index (Saccharomyces cerevisiae [1]; [3]): 0.365 ± 0.039; protein stability index (Saccharomyces cerevisiae [1]; [4]): 0.398 ± 0.017; protein stability index (Saccharomyces cerevisiae [1]; [5]): 0.308 ± 0.028; protein stability index (Saccharomyces cerevisiae [1]; [6]): 0.426 ± 0.02; protein stability index (Saccharomyces cerevisiae [1]; [7]): 0.3058 ± 0.0007; protein stability index (Saccharomyces cerevisiae [1]; [8]): 0.315 ± 0.012; protein stability index (Saccharomyces cerevisiae [1]; [9]): 0.411 ± 0.0012 |
| WFHPAPLCGPQS | 0.662 ± 0.063 | – |
| WFLCWGWGCGGA | 0.673 ± 0.08 | – |
| WFRPLSMLPPGF | 0.701 ± 0.02 | – |
| WGCFPGVVMGVS | 0.594 ± 0.02 | – |
| WGDDRIRVCVRG | 0.611 ± 0.035 | – |
| WGFWLCSGNWST | 0.725 ± 0.0088 | – |
| WGGGGGGGAAGS | 0.679 ± 0.08 | – |
| WGGGRGLRVVGG | 0.733 ± 0.092 | – |
| WGGWGRVWVKLG | 0.701 ± 0.05 | – |
| WGIVGLRGSRVG | 0.618 ± 0.018 | – |
| WGMVFQVFRRRN | 0.582 ± 0.018 | – |
| WGPGGRRGVGHV | 0.727 ± 0.058 | – |
| WGQCLYRSAGSV | 0.715 ± 0.055 | – |
| WGRCGAVGRGGA | 0.693 ± 0.029 | – |
| WGRGAVGPLLGV | 0.632 ± 0.016 | – |
| WGRLRFFDCSGF | 0.605 ± 0.014 | – |
| WGRRGRRGSWGA | 0.683 ± 0.024 | – |
| WGRRNFLPNSPR | 0.67 ± 0.049 | – |
| WGSLVRLFGLWR | 0.6541 ± 0.0015 | – |

| Sequence | protein stability index (Saccharomyces cerevisiae [2]) | other results |
| --- | --- | --- |
| WGVWYGGAVRVG | 0.5 ± 0.052 | – |
| WIPSYMRFCALT | 0.788 ± 0.098 | – |
| WIRRWVGVEGPL | 0.707 ± 0.079 | – |
| WKNGYITGHRYM | 0.66596 ± 0.00041 | – |
| WLGSRGNGGWAE | 0.696 ± 0.024 | – |
| WLPSSLPPIVHH | 0.662 ± 0.018 | – |
| WMCILESWDSVD | 0.706 ± 0.099 | – |
| WPFMGLSAGCLR | 0.691 ± 0.028 | – |
| WPLKTMLFGIWV | 0.562 ± 0.028 | – |
| WPSMFFSIEESW | 0.887 ± 0.042 | – |
| WPTPRVGIDLEN | 0.631 ± 0.05 | – |
| WQMRNGTSRSSL | 0.631 ± 0.012 | – |
| WREAVMKRQGGG | 0.677 ± 0.014 | – |
| WREGKTCTRKGG | 0.57 ± 0.047 | – |
| WRGQRGRIAGPR | 0.6694 ± 0.0062 | – |
| WRLGEREGWKAG | 0.615 ± 0.0077 | – |
| WRSGGGGGPAGV | 0.6762 ± 0.0032 | – |
| WRTRRVVFPNWH | 0.666 ± 0.008 | – |
| WSFQTRSVNICI | 0.633 ± 0.021 | – |
| WSLSSHCMLMVE | 0.5394 ± 0.0051 | – |
| WSPILEHAISDL | 0.731 ± 0.017 | – |
| WSPPRAAPRPHP | 0.642 ± 0.045 | – |
| WSRSEIGDGSAG | 0.742 ± 0.023 | – |

| Sequence | protein stability index (Saccharomyces cerevisiae [2]) | other results |
| --- | --- | --- |
| WSSGDVRRAKEW | 0.719 ± 0.078 | – |
| WSVAVVWDALFG | 0.699 ± 0.04 | – |
| WTFVRTPERSEI | 0.719 ± 0.0089 | – |
| WTIVEALPRGVV | 0.679 ± 0.046 | – |
| WTTWAYFSDPTS | 0.621 ± 0.021 | – |
| WVGCALEQGGAV | 0.71 ± 0.0019 | – |
| WVGPGGAVENKV | 0.7013 ± 0.0032 | – |
| WVKTLEKEDHVI | 0.759 ± 0.21 | – |
| WVPLGVVGWFGG | 0.659 ± 0.038 | – |
| WVRDDEYTLIFL | 0.712 ± 0.035 | – |
| WVTGASRLVGRE | 0.766 ± 0.13 | – |
| WVWAIDYEGLLW | 0.699 ± 0.054 | – |
| WVWGVLGAVWFG | 0.632 ± 0.0091 | – |
| WYTPDCLHCGPA | 0.688 ± 0.013 | – |
| YAAGGPLLLCNQ | 0.66 ± 0.021 | – |
| YAGGLWEGYRHW | 0.636 ± 0.063 | – |
| YCALVSVGVVGG | 0.542 ± 0.0036 | – |
| YCFRFGLLIFGD | 0.548 ± 0.01 | – |
| YCGGRGGGWEIG | 0.682 ± 0.027 | – |
| YCNLSFKINREW | 0.696 ± 0.12 | – |
| YCRQVSYERPTK | 0.743 ± 0.077 | – |
| YEACQTGASICR | 0.7125 ± 0.0013 | – |
| YEGARAPAGGEK | 0.689 ± 0.034 | – |

| Sequence | protein stability index (Saccharomyces cerevisiae [2]) | other results |
| --- | --- | --- |
| YERKGRQVGGRT | 0.592 ± 0.048 | – |
| YFAASFMSSSGI | 0.76 ± 0.078 | – |
| YFALPPSAHRHQ | 0.693 ± 0.059 | – |
| YFPSSTLPPPVP | 0.675 ± 0.029 | – |
| YFTARLLFFGYI | 0.725 ± 0.1 | – |
| YGGFLHALAMGG | 0.677 ± 0.0014 | – |
| YGLAGFLWGCGE | 0.799 ± 0.051 | – |
| YGRRPGSRGDEH | 0.699 ± 0.025 | – |
| YGSRWRPYLGFR | 0.669 ± 0.028 | – |
| YGTLCPLNGCGI | 0.633 ± 0.068 | – |
| YGWGVWFIGLGG | 0.794 ± 0.095 | – |
| YIDLVEGECNKK | 0.685 ± 0.046 | – |
| YILSSFWTEVDS | 0.703 ± 0.093 | – |
| YKTCKEKKITNR | 0.704 ± 0.014 | – |
| YLCRLHLGGLSS | 0.602 ± 0.0075 | – |
| YLEDRGTSGSVQ | 0.676 ± 0.054 | – |
| YLSRIFPSLLFL | 0.6 ± 0.03 | – |
| YLSSTVVRSMLF | 0.644 ± 0.014 | – |
| YLVHEIGDMTYM | 0.739 ± 0.079 | – |
| YLVSYLSLFLSF | 0.504 ± 0.029 | – |
| YNGNSHQTHRHP | 0.74 ± 0.022 | – |
| YNGVGGLKPEPC | 0.658 ± 0.049 | – |
| YPKGKHSQDSHV | 0.656 ± 0.039 | – |

| Sequence | protein stability index (Saccharomyces cerevisiae [2]) | other results |
| --- | --- | --- |
| YPLLPSERDVKA | 0.728 ± 0.023 | – |
| YPPPPPSPPSTV | 0.722 ± 0.027 | – |
| YPRNPSLSTSAS | 0.63 ± 0.16 | – |
| YPRPLSLSFLSL | 0.73 ± 0.048 | – |
| YPVLFLRSAPCK | 0.584 ± 0.031 | – |
| YQCESDLFLVGV | 0.642 ± 0.041 | – |
| YQCGRRVGSACD | 0.645 ± 0.023 | – |
| YQCVQNNKGRSR | 0.67 ± 0.024 | – |
| YQLRRGDSSLTE | 0.677 ± 0.085 | – |
| YRDTVYKVRYSN | 0.537 ± 0.015 | – |
| YRERSTIKITGN | 0.671 ± 0.054 | – |
| YRGNLVTDGYGA | 0.685 ± 0.019 | – |
| YRPFQAPPLVLF | 0.6379 ± 0.0026 | – |
| YRPGGDRMTGFV | 0.713 ± 0.065 | – |
| YRRGLGEYRTRS | 0.688 ± 0.059 | – |
| YRSEEFSGESGW | 0.769 ± 0.11 | – |
| YRTPRSRHLDSP | 0.6938 ± 0.0068 | – |
| YRVGCCCFFALT | 0.618 ± 0.016 | – |
| YRVSWSFLGCFQ | 0.62 ± 0.071 | – |
| YSDFLICGIGSY | 0.775 ± 0.037 | – |
| YSDHFFQICGSF | 0.726 ± 0.0065 | – |
| YSGNPGVRGFHG | 0.69 ± 0.073 | – |
| YSGSKGVWTRWS | 0.687 ± 0.02 | – |

| Sequence | protein stability index (Saccharomyces cerevisiae [2]) | other results |
| --- | --- | --- |
| YSGSYIEPREIR | 0.626 ± 0.087 | – |
| YSSGILPLEMIA | 0.606 ± 0.0092 | – |
| YSTFPPRIPRPP | 0.524 ± 0.011 | – |
| YTESQVCLLSAY | 0.509 ± 0.0088 | – |
| YTPALFLPVRPA | 0.715 ± 0.06 | – |
| YTQVSSRGINID | 0.734 ± 0.029 | – |
| YTRILRKKLINK | 0.711 ± 0.11 | – |
| YTSRLGRGILHV | 0.671 ± 0.031 | – |
| YVEGSWSSPRCR | 0.675 ± 0.12 | – |
| YVKEEEKKKESK | 0.681 ± 0.079 | – |
| YVRLSTLCGSAY | 0.58 ± 0.036 | – |
| YVSNKMHGSLLS | 0.691 ± 0.03 | – |
| YVTITLGLASPT | 0.666 ± 0.026 | – |
| YVVPLGIPPFKD | 0.6591 ± 0.00099 | – |
| YVWCINSARLVG | 0.587 ± 0.01 | – |
| YWSRIFEAATIA | 0.5436 ± 0.0024 | – |
| YWSTNGRCLMVL | 0.581 ± 0.017 | – |
| YYAMGFEKSISS | 0.682 ± 0.031 | – |
| YYDWPGQRFSEE | 0.67 ± 0.035 | – |
| YYRKATFSPMVQ | 0.684 ± 0.072 | – |
| YYSTPLARSRSP | 0.831 ± 0.21 | – |
